Laboratory results published in article PMC4258549 (Journal of immunology (Baltimore, Md. : 1950), 2014).

B1: Eap23 (Eap fragment of domains 2 and 3) (domain or fragment)
chain: ANVQVPYTITVNGTSQNILSNLTFNKNQNISYKDLEGKVKSVLESNRGITDVDLRLSKQAKYTVNFKNGTKKVIDLKSGIYTANLINSSDIKSININVDTKKHIENKAKRNYQVPYSINLNGTSTNILSNLSFSNKPWTNYKNLTSQIKSVLKHDRGISEQDLKYAKKAYYTVYFKNGGKRILQLNSKNYTANLVHAKDVKRIEITVKTGTKAKADRYV
B2: Eap12 (Eap fragment of domains 1 and 2) (domain or fragment)
chain: GHSNIQIPYTITVNGTSQNILSSLTFNKNQNISYKDIENKVKSVLYFNRGISDIDLRLSKQAEYTVHFKNGTKRVIDLKSGIYTADLINTSDIKAISVNVDTKKQPKDKAKANVQVPYTITVNGTSQNILSNLTFNKNQNISYKDLEGKVKSVLESNRGITDVDLRLSKQAKYTVNFKNGTKKVIDLKSGIYTANLINSSDIKSININVDTKKHIENKAKR
B3: Eap34 (Eap fragment of domains 3 and 4) (domain or fragment)
chain: NYQVPYSINLNGTSTNILSNLSFSNKPWTNYKNLTSQIKSVLKHDRGISEQDLKYAKKAYYTVYFKNGGKRILQLNSKNYTANLVHAKDVKRIEITVKTGTKAKADRYVPYTIAVNGTSTPILSKLKISNKQLISYKYLNDKVKSVLKSERGISDLDLKFAKQAKYTVYFKNGKKQVVNLKSDIFTPNLFSAKDIKKIDIDVKQYTKSKKK

Legend:
biotinylated C4b [1] = biological target: T1, biotinylated C4b (human, biotin through Maleimide-PEG2-Biotin (residue not stated)); test: AlphaScreen or HTRF
biotinylated C4b [2] = biological target: T1, biotinylated C4b; test: SPR

Binder | Kd (biotinylated C4b [1]) [nM] | fold weaker binding than Eap (biotinylated C4b [1]) [fold] | IC50 (biotinylated C4b [2]) [nM]
B1 | 293 ± 38 | – | –
B2 | – | ~100 | –
B3 | 525 ± 65 | – | ~870
